According to US20240066137A1, “NOVEL PROTEIN CONJUGATE, AND USE THEREOF FOR PREVENTING OR TREATING NONALCOHOLIC STEATOHEPATITIS, OBESITY AND DIABETES” (ONEGENE BIOTECHNOLOGY INC., priority 2020, published 2024):
One block for each substance: values may come before it.

How the values were obtained:
Assay in all cases: cell-based or functional assay
GLP-1 acceptor = GLP-1 acceptor (UniProt P43220)
GIP acceptor = GIP acceptor (UniProt P48546)
IL-1RA acceptor = IL-1RA acceptor (UniProt P14778)
FGFR1/KLB acceptor = FGFR1/KLB acceptor (UniProt P11362)
Chain of FGFR1/KLB acceptor (P11362 22-822 limits assumed, chain 1 of 2): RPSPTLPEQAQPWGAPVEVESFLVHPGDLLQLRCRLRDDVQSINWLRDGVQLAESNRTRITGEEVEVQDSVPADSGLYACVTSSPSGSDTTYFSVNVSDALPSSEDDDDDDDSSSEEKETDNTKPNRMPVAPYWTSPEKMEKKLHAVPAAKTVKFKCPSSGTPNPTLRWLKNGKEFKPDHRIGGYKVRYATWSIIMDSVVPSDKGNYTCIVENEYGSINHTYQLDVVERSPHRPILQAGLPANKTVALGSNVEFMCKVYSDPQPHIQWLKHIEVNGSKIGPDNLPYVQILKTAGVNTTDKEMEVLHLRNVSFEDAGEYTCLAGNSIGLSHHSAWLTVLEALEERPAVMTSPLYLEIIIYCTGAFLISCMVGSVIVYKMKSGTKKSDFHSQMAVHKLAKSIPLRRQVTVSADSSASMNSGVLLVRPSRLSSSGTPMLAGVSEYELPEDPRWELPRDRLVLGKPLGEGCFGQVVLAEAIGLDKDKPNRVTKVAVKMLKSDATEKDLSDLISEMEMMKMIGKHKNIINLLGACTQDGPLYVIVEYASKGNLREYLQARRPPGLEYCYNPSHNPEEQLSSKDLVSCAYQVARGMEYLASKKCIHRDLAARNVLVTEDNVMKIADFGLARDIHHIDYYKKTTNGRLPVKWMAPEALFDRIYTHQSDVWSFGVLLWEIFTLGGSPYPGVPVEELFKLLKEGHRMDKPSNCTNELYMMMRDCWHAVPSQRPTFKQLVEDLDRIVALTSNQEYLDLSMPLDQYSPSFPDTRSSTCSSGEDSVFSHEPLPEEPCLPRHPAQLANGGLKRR
Chain of FGFR1/KLB acceptor (Q86Z14 whole entry, chain 2 of 2, further chain): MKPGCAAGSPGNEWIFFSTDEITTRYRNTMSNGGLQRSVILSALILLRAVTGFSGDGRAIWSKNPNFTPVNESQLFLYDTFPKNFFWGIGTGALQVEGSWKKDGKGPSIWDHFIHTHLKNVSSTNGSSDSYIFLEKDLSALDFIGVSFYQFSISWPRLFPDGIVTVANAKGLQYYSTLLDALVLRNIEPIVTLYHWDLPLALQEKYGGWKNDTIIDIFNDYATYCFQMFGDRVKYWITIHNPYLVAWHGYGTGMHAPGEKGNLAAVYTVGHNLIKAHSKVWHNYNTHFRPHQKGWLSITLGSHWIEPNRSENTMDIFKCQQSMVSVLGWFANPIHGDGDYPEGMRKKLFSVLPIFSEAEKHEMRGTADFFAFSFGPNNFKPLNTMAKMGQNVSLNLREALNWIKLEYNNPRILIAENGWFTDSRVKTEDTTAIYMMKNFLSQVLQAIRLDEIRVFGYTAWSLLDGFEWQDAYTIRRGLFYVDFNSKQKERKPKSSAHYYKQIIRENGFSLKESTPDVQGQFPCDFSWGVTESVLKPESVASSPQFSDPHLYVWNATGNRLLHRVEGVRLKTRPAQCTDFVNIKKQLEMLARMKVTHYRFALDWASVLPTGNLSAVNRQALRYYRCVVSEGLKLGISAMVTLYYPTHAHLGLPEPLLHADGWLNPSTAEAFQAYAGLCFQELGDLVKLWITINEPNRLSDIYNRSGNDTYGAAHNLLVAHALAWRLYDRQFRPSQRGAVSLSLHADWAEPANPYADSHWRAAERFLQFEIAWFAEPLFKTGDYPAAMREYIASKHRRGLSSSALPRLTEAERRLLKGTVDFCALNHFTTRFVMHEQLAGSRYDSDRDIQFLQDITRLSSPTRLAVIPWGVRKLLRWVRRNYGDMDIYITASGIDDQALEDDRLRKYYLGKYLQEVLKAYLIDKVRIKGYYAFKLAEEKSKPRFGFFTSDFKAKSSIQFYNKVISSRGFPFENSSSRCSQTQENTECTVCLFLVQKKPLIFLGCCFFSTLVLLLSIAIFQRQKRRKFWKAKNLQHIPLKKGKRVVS

Chain of IL-1RA acceptor (P14778 18-569 limits assumed): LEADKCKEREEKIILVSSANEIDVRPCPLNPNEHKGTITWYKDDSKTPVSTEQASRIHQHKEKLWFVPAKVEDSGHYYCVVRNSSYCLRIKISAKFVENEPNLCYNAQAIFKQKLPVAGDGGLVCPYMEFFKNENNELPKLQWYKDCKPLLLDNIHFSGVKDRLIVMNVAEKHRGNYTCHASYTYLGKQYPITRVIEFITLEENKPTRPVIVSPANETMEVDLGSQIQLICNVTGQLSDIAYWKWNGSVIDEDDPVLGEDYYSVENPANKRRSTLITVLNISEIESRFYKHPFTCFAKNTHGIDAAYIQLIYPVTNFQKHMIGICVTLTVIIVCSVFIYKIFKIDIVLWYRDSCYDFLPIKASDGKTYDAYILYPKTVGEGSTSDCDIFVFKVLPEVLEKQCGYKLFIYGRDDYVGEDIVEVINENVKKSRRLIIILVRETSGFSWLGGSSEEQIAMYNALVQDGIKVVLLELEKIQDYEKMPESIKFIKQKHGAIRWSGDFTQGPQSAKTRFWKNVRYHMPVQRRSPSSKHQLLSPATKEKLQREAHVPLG
Chain of GIP acceptor (P48546 22-466 limits assumed): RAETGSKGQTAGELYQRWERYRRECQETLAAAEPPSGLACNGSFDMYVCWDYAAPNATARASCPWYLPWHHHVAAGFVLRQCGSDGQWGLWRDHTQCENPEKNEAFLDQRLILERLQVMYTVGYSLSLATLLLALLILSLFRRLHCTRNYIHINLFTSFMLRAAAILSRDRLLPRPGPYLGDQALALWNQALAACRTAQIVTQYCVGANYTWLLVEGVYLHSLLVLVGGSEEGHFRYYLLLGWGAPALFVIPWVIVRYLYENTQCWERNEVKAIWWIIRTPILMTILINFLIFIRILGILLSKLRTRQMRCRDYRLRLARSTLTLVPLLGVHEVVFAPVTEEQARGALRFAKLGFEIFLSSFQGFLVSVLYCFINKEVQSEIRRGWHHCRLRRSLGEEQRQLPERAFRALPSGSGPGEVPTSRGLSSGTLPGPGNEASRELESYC
Chain of GLP-1 acceptor (P43220 24-463 limits assumed): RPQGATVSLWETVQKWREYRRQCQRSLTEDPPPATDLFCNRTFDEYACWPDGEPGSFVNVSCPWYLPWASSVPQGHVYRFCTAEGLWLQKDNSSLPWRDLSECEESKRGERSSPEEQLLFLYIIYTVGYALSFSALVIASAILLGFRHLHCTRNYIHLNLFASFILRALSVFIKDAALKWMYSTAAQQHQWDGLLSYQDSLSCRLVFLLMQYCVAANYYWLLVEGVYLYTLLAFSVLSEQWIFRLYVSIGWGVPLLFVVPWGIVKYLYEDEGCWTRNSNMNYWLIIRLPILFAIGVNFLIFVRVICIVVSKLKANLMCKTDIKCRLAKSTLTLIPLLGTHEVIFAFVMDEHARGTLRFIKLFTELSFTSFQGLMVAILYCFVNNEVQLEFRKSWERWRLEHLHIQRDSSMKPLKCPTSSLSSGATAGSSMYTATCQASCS
Chain of Dulaglutide (Fc fusion) (chain): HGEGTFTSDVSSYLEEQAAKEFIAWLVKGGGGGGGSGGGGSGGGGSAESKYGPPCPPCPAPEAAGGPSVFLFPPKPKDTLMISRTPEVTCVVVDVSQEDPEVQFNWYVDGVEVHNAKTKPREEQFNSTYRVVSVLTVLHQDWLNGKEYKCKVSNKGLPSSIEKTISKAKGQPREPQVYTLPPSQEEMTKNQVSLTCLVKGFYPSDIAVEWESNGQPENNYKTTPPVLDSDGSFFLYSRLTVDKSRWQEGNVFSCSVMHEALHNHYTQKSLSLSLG
Chain of rhFGF21 (Native) (Q9NSA1 29-209 limits assumed): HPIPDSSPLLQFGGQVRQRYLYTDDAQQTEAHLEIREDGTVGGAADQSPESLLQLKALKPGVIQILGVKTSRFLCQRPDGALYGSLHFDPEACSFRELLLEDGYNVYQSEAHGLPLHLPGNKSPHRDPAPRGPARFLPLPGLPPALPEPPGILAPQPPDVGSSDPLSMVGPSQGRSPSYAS

EC50, cAMP accumulation assay; Mean (GLP-1 acceptor): 0.00107 nM
EC50, cAMP accumulation assay; Stable cell line, n = 6 (GLP-1 acceptor): 0.00145 nM
EC50, cAMP accumulation assay; run 1 (GLP-1 acceptor): 0.00123 nM
EC50, cAMP accumulation assay; run 2 (GLP-1 acceptor): 0.0009 nM
Substance: Dulaglutide (Fc fusion)

EC50, cAMP accumulation assay; Mean (GIP acceptor): 0.0148 nM
EC50, cAMP accumulation assay; run 1 (GIP acceptor): 0.0154 nM
EC50, cAMP accumulation assay; run 2 (GIP acceptor): 0.0141 nM
Substance: GIP(1-39) (from UniProt P09681 52-90) (peptide)

IC50, NF-κB reporter gene luciferase assay with IL-1β; Mean (IL-1RA acceptor): 0.0475 nM
IC50, NF-κB reporter gene luciferase assay with IL-1β; n = 2 (IL-1RA acceptor): 0.0686 nM
IC50, NF-κB reporter gene luciferase assay with IL-1β; run 1 (IL-1RA acceptor): 0.0399 nM
IC50, NF-κB reporter gene luciferase assay with IL-1β; run 2 (IL-1RA acceptor): 0.0515 nM
IC50, NF-κB reporter gene luciferase assay with IL-1β; run 3 (IL-1RA acceptor): 0.0466 nM
IC50, NF-κB reporter gene luciferase assay with IL-1β; run 4 (IL-1RA acceptor): 0.0519 nM
Substance: rhIL-1RA (Native) (from UniProt P18510 26-177) (ligand)

EC50, FGFR1/KLB functional assay; Mean (FGFR1/KLB acceptor): 0.82 nM
EC50, FGFR1/KLB functional assay; n = 4 (FGFR1/KLB acceptor): 1.17 nM
EC50, FGFR1/KLB functional assay; run 1 (FGFR1/KLB acceptor): 0.75 nM
EC50, FGFR1/KLB functional assay; run 2 (FGFR1/KLB acceptor): 0.88 nM
Substance: rhFGF21 (Native) (from UniProt Q9NSA1 29-209) (ligand)
